{"source": "the supplement of paper PMC10567573", "parents": {"B1": {"name": "SPATS1 (parent)", "chain": "GRKKYDIDPRNGIPKLTPGDNPYM"}}, "data": [{"variants_of": "B1", "test": "protein stability index of a GFP-peptide fusion (GPS, HEK-293T) (PSI 1-6); higher = more stable", "details": "c terminus: a fixed tail appended", "values": [{"variant": "GRKKQDIDPRNGIPKLTPGDNPYM", "note": "[Y5Q]", "protein stability index": 4.27}, {"variant": "GRKKLDIDPRNGIPKLTPGDNPYM", "note": "[Y5L]", "protein stability index": 4.43}, {"variant": "GRKKYDIDPPNGIPKLTPGDNPYM", "note": "[R10P]", "protein stability index": 3.29}, {"variant": "GRKKYDIDPLNGIPKLTPGDNPYM", "note": "[R10L]", "protein stability index": 3.53}, {"variant": "GRKKYDIDPTNGIPKLTPGDNPYM", "note": "[R10T]", "protein stability index": 3.81}, {"variant": "GRKKYDIDPKNGIPKLTPGDNPYM", "note": "[R10K]", "protein stability index": 3.92}, {"variant": "GRKKYDIDPINGIPKLTPGDNPYM", "note": "[R10I]", "protein stability index": 3.57}, {"variant": "GRKKYDIDPSNGIPKLTPGDNPYM", "note": "[R10S]", "protein stability index": 3.65}, {"variant": "GRKKYDIDPENGIPKLTPGDNPYM", "note": "[R10E]", "protein stability index": 4.19}, {"variant": "GRKKYDIDPQNGIPKLTPGDNPYM", "note": "[R10Q]", "protein stability index": 4.14}, {"variant": "GRKKYDIDPWNGIPKLTPGDNPYM", "note": "[R10W]", "protein stability index": 2.56}, {"variant": "GRKKYDIDPYNGIPKLTPGDNPYM", "note": "[R10Y]", "protein stability index": 3.1}, {"variant": "GRKKYDIDPMNGIPKLTPGDNPYM", "note": "[R10M]", "protein stability index": 3.03}, {"variant": "GRKKYDIDPHNGIPKLTPGDNPYM", "note": "[R10H]", "protein stability index": 3.4}, {"variant": "GRKKYDIDPDNGIPKLTPGDNPYM", "note": "[R10D]", "protein stability index": 4.41}, {"variant": "GRKKYDIDPGNGIPKLTPGDNPYM", "note": "[R10G]", "protein stability index": 3.68}, {"variant": "GRKKYDIDPVNGIPKLTPGDNPYM", "note": "[R10V]", "protein stability index": 2.8}, {"variant": "GRKKYDIDPANGIPKLTPGDNPYM", "note": "[R10A]", "protein stability index": 3.48}, {"variant": "GRKKYDIDPCNGIPKLTPGDNPYM", "note": "[R10C]", "protein stability index": 3.77}, {"variant": "GRKKYDIDPNNGIPKLTPGDNPYM", "note": "[R10N]", "protein stability index": 3.23}, {"variant": "GRKKYDIDPFNGIPKLTPGDNPYM", "note": "[R10F]", "protein stability index": 2.7}, {"variant": "GRKKYDNDPRNGIPKLTPGDNPYM", "note": "[I7N]", "protein stability index": 3.86}, {"variant": "GRKKYDCDPRNGIPKLTPGDNPYM", "note": "[I7C]", "protein stability index": 3.93}, {"variant": "GRKKYDQDPRNGIPKLTPGDNPYM", "note": "[I7Q]", "protein stability index": 4.17}, {"variant": "GRKKYDPDPRNGIPKLTPGDNPYM", "note": "[I7P]", "protein stability index": 3.71}, {"variant": "GRKKYDGDPRNGIPKLTPGDNPYM", "note": "[I7G]", "protein stability index": 4.08}, {"variant": "GRKKYDRDPRNGIPKLTPGDNPYM", "note": "[I7R]", "protein stability index": 4.22}, {"variant": "GRKKYDYDPRNGIPKLTPGDNPYM", "note": "[I7Y]", "protein stability index": 3.45}, {"variant": "GRKKYDHDPRNGIPKLTPGDNPYM", "note": "[I7H]", "protein stability index": 3.81}, {"variant": "GRKKYDEDPRNGIPKLTPGDNPYM", "note": "[I7E]", "protein stability index": 4.5}, {"variant": "GRKKYDKDPRNGIPKLTPGDNPYM", "note": "[I7K]", "protein stability index": 4.19}, {"variant": "GRKKYDLDPRNGIPKLTPGDNPYM", "note": "[I7L]", "protein stability index": 3.39}, {"variant": "GRKKYDVDPRNGIPKLTPGDNPYM", "note": "[I7V]", "protein stability index": 3.83}, {"variant": "GRKKYDSDPRNGIPKLTPGDNPYM", "note": "[I7S]", "protein stability index": 4.25}, {"variant": "GRKKYDFDPRNGIPKLTPGDNPYM", "note": "[I7F]", "protein stability index": 3.11}, {"variant": "GRKKYDMDPRNGIPKLTPGDNPYM", "note": "[I7M]", "protein stability index": 2.98}, {"variant": "GRKKYDDDPRNGIPKLTPGDNPYM", "note": "[I7D]", "protein stability index": 4.21}, {"variant": "GRKKYDADPRNGIPKLTPGDNPYM", "note": "[I7A]", "protein stability index": 3.53}, {"variant": "GRKKYDWDPRNGIPKLTPGDNPYM", "note": "[I7W]", "protein stability index": 2.91}, {"variant": "GRKKYDTDPRNGIPKLTPGDNPYM", "note": "[I7T]", "protein stability index": 3.75}, {"variant": "GRKMYDIDPRNGIPKLTPGDNPYM", "note": "[K4M]", "protein stability index": 3.5}, {"variant": "GRKPYDIDPRNGIPKLTPGDNPYM", "note": "[K4P]", "protein stability index": 3.52}, {"variant": "GRKQYDIDPRNGIPKLTPGDNPYM", "note": "[K4Q]", "protein stability index": 3.23}, {"variant": "GRKSYDIDPRNGIPKLTPGDNPYM", "note": "[K4S]", "protein stability index": 3.83}, {"variant": "GRKNYDIDPRNGIPKLTPGDNPYM", "note": "[K4N]", "protein stability index": 3.88}, {"variant": "GRKDYDIDPRNGIPKLTPGDNPYM", "note": "[K4D]", "protein stability index": 3.83}, {"variant": "GRKLYDIDPRNGIPKLTPGDNPYM", "note": "[K4L]", "protein stability index": 2.91}, {"variant": "GRKRYDIDPRNGIPKLTPGDNPYM", "note": "[K4R]", "protein stability index": 3.19}, {"variant": "GRKHYDIDPRNGIPKLTPGDNPYM", "note": "[K4H]", "protein stability index": 3.2}, {"variant": "GRKAYDIDPRNGIPKLTPGDNPYM", "note": "[K4A]", "protein stability index": 3.38}, {"variant": "GRKTYDIDPRNGIPKLTPGDNPYM", "note": "[K4T]", "protein stability index": 3.48}, {"variant": "GRKYYDIDPRNGIPKLTPGDNPYM", "note": "[K4Y]", "protein stability index": 3.22}, {"variant": "GRKGYDIDPRNGIPKLTPGDNPYM", "note": "[K4G]", "protein stability index": 3.71}, {"variant": "GRKEYDIDPRNGIPKLTPGDNPYM", "note": "[K4E]", "protein stability index": 4.1}, {"variant": "GRKWYDIDPRNGIPKLTPGDNPYM", "note": "[K4W]", "protein stability index": 3.03}, {"variant": "GRKCYDIDPRNGIPKLTPGDNPYM", "note": "[K4C]", "protein stability index": 2.81}, {"variant": "GRKIYDIDPRNGIPKLTPGDNPYM", "note": "[K4I]", "protein stability index": 3.33}, {"variant": "GRKFYDIDPRNGIPKLTPGDNPYM", "note": "[K4F]", "protein stability index": 2.62}, {"variant": "GRKVYDIDPRNGIPKLTPGDNPYM", "note": "[K4V]", "protein stability index": 3.29}, {"variant": "GRKKYDIDPRNGPPKLTPGDNPYM", "note": "[I13P]", "protein stability index": 3.86}, {"variant": "GRKKYDIDPRNGAPKLTPGDNPYM", "note": "[I13A]", "protein stability index": 4.14}, {"variant": "GRKKYDIDPRNGHPKLTPGDNPYM", "note": "[I13H]", "protein stability index": 4.04}, {"variant": "GRKKYDIDPRNGMPKLTPGDNPYM", "note": "[I13M]", "protein stability index": 3.36}, {"variant": "GRKKYDIDPRNGNPKLTPGDNPYM", "note": "[I13N]", "protein stability index": 4.1}, {"variant": "GRKKYDIDPRNGEPKLTPGDNPYM", "note": "[I13E]", "protein stability index": 4.45}, {"variant": "GRKKYDIDPRNGDPKLTPGDNPYM", "note": "[I13D]", "protein stability index": 4.92}, {"variant": "GRKKYDIDPRNGQPKLTPGDNPYM", "note": "[I13Q]", "protein stability index": 3.68}, {"variant": "GRKKYDIDPRNGSPKLTPGDNPYM", "note": "[I13S]", "protein stability index": 3.88}, {"variant": "GRKKYDIDPRNGLPKLTPGDNPYM", "note": "[I13L]", "protein stability index": 3.64}, {"variant": "GRKKYDIDPRNGFPKLTPGDNPYM", "note": "[I13F]", "protein stability index": 3.99}, {"variant": "GRKKYDIDPRNGCPKLTPGDNPYM", "note": "[I13C]", "protein stability index": 3.82}, {"variant": "GRKKYDIDPRNGRPKLTPGDNPYM", "note": "[I13R]", "protein stability index": 3.58}, {"variant": "GRKKYDIDPRNGGPKLTPGDNPYM", "note": "[I13G]", "protein stability index": 3.78}, {"variant": "GRKKYDIDPRNGKPKLTPGDNPYM", "note": "[I13K]", "protein stability index": 3.9}, {"variant": "GRKKYDIDPRNGTPKLTPGDNPYM", "note": "[I13T]", "protein stability index": 3.72}, {"variant": "GRKKYDILPRNGIPKLTPGDNPYM", "note": "[D8L]", "protein stability index": 3.16}, {"variant": "GRKKYDIKPRNGIPKLTPGDNPYM", "note": "[D8K]", "protein stability index": 3.14}, {"variant": "GRKKYDIPPRNGIPKLTPGDNPYM", "note": "[D8P]", "protein stability index": 3.42}, {"variant": "GRKKYDITPRNGIPKLTPGDNPYM", "note": "[D8T]", "protein stability index": 3.56}, {"variant": "GRKKYDIWPRNGIPKLTPGDNPYM", "note": "[D8W]", "protein stability index": 2.68}, {"variant": "GRKKYDICPRNGIPKLTPGDNPYM", "note": "[D8C]", "protein stability index": 3.1}, {"variant": "GRKKYDISPRNGIPKLTPGDNPYM", "note": "[D8S]", "protein stability index": 3.33}, {"variant": "GRKKYDIHPRNGIPKLTPGDNPYM", "note": "[D8H]", "protein stability index": 2.82}, {"variant": "GRKKYDIEPRNGIPKLTPGDNPYM", "note": "[D8E]", "protein stability index": 3.72}, {"variant": "GRKKYDIRPRNGIPKLTPGDNPYM", "note": "[D8R]", "protein stability index": 3.08}, {"variant": "GRKKYDIAPRNGIPKLTPGDNPYM", "note": "[D8A]", "protein stability index": 3.02}, {"variant": "GRKKYDINPRNGIPKLTPGDNPYM", "note": "[D8N]", "protein stability index": 3.12}, {"variant": "GRKKYDIIPRNGIPKLTPGDNPYM", "note": "[D8I]", "protein stability index": 3.08}, {"variant": "GRKKYDIVPRNGIPKLTPGDNPYM", "note": "[D8V]", "protein stability index": 3.08}, {"variant": "GRKKYDIQPRNGIPKLTPGDNPYM", "note": "[D8Q]", "protein stability index": 3.83}, {"variant": "GRKKYDIFPRNGIPKLTPGDNPYM", "note": "[D8F]", "protein stability index": 2.84}, {"variant": "GRKKYDIMPRNGIPKLTPGDNPYM", "note": "[D8M]", "protein stability index": 3.18}, {"variant": "GRKKYDIYPRNGIPKLTPGDNPYM", "note": "[D8Y]", "protein stability index": 2.68}, {"variant": "GRKKYDIGPRNGIPKLTPGDNPYM", "note": "[D8G]", "protein stability index": 2.93}]}]}
